Measured values: patent US20250066422A1

Columns and labels:
Assay in all cases: ProImmune REVEAL MHC-peptide binding assay
HLA-DR2 (human) = target: HLA-DR2 (human)
HLA-DR4 (human) = target: HLA-DR4 (human)
HLA-DR1 (human) = target: HLA-DR1 (human)
HLA-DR7 (human) = target: HLA-DR7 (human)
HLA-DR5 (human) = target: HLA-DR5 (human)

Row | Binder | Relative Binding Score (% of positive control) (HLA-DR2 (human)) | Relative Binding Score (% of positive control) (HLA-DR4 (human)) | Relative Binding Score (% of positive control) (HLA-DR1 (human)) | Relative Binding Score (% of positive control) (HLA-DR7 (human)) | Relative Binding Score (% of positive control) (HLA-DR5 (human))
1 | TLGEFLKLDRERAKN (peptide, from a related filing) [BIR-002] | 0.05 | 6.12 | 40.1 | 0.27 | 104
2 | TFSYVDPVITSISPKYG (peptide, from a related filing) [MET-005] | 0.28 | 5.89 | 0.87 | 3.69 | 0.12
